In patent publication US20080138335A1 (Kyowa Kirin, published 2008):

Target: T1, CD40 expressed on Ramos [ATCC] cells (UniProt P25942 21-277, limits assumed)
T1 construct: whole, on cells; Target of all flow cytometry and CD95 assays; endogenous CD40 on the Ramos cell line
Assay: flow cytometry (FACS) on Ramos cells expressing CD40, R-PE anti-human antibody

T1 sequence (P25942 21-277 limits assumed): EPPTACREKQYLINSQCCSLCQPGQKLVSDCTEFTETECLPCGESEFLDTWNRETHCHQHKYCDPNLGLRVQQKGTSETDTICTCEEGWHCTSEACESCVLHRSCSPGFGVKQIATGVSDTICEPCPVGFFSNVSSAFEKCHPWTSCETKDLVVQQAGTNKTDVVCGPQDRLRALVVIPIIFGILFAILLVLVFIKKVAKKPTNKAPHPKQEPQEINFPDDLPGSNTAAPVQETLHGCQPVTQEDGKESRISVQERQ

| binding result | Binder |
| --- | --- |
| binds | 4D11-G3[R435H] (antibody, V domains shown, One-amino acid variant of 4D11-G3; also called IgG3[R435H]; N5KG3-R435H; not shown: human IgG3 heavy chain constant region, from vector N5KG3) VH: QLQLQESGPGLLKPSETLSLTCTVSGGSISSPGYYGGWIRQPPGKGLEWIGSIYKSGSTYHNPSLKSRVTISVDTSKNQFSLKLSSVTAADTAVYYCTRPVVRYFGWFDPWGQGTLVTVSS VL: AIQLTQSPSSLSASVGDRVTITCRASQGISSALAWYQQKPGKAPKLLIYDASNLESGVPSRFSGSGSGTDFTLTISSLQPEDFATYYCQQFNSYPTFGQGTKVEIK |
| binds | 341-G [2/2/1/2] (antibody, also called IgG[2/2/1/2]; N5KG2212; not shown: human IgG2 heavy chain constant region, CH1 and hinge domains (EU 118-237), from vector N5KG2; human IgG1 heavy chain constant region, CH2 domain (EU 238-340), from vector N5KG1 by way of N5KG2211; human IgG2 heavy chain constant region, CH3 domain (EU 341-446), from vector N5KG2) heavy: QVQLQQSGPGLVKPSQTLSLTCAISGDSVSSNSATWNWIRQSPSRDLEWLGRTYYRSKWYRDYVGSVKSRIIINPDTSNNQFSLQLNSVTPEDTAIYYCTRAQWLGGDYPYYYSMDVWGQGTTVTVSS VL: EIVLTQSPATLSLSPGERATLSCRASQSVSSYLAWYQQKPGQAPRLLIYDASNRATGIPARFSGSGSGTDFTLTISSLEPEDFAVYYCQQRSNTFGPGTKVDIK |
| binds | 341-G [2/2/2/1] (antibody, also called IgG[2/2/2/1]; N5KG2221; not shown: human IgG2 heavy chain constant region, CH1, hinge and CH2 domains (EU 118-340), from vector N5KG2; human IgG1 heavy chain constant region, CH3 domain (EU 341-446), from vector N5KG1) heavy: QVQLQQSGPGLVKPSQTLSLTCAISGDSVSSNSATWNWIRQSPSRDLEWLGRTYYRSKWYRDYVGSVKSRIIINPDTSNNQFSLQLNSVTPEDTAIYYCTRAQWLGGDYPYYYSMDVWGQGTTVTVSS VL: EIVLTQSPATLSLSPGERATLSCRASQSVSSYLAWYQQKPGQAPRLLIYDASNRATGIPARFSGSGSGTDFTLTISSLEPEDFAVYYCQQRSNTFGPGTKVDIK |
